Data set [1] concerns the target Fc fragment of human IgG4 (IdeS-cleaved; identical for IgG4 and IgG4Pro) (human). Put plainly: AUC; sedimentation velocity, absorbance 280 nm, 20 °C, 40,000 rpm, three concentrations in 1:3 dilutions from 0.5 mg/mL (0.5, 0.167, 0.056 mg/mL); Figure 2 in 10 mM sodium acetate, 50 mM NaCl, pH 5.0; oligomer told from sw against ~50 kDa.
Data set [2] deals with the molecule itself. The description is as above.

This note sets out measurements from article PMC6640702, “IgG Charge: Practical and Biological Implications” (Antibodies, 2019).

Regarding “Fc fragment of human IgG4 (IdeS-cleaved; identical for IgG4 and IgG4Pro) (domain or fragment)”, the stoichiometry N (as a rule, a count of units in the complex or per binding partner) in data set [1] was 2.

B1: Fc fragment of human IgG2 (IdeS-cleaved) (domain or fragment)
chain: GPSVFLFPPKPKDTLMISRTPEVTCVVVDVSHEDPEVQFNWYVDGVEVHNAKTKPREEQFNSTFRVVSVLTVVHQDWLNGKEYKCKVSNKGLPAPIEKTISKTKGQPREPQVYTLPPSREEMTKNQVSLTCLVKGFYPSDIAVEWESNGQPENNYKTTPPMLDSDGSFFLYSKLTVDKSRWQQGNVFSCSVMHEALHNHYTQKSLSLSPGK
modifications: asparagine (N)-linked glycoforms G0F, G1F, G2F (told of the intact IgGs)
With B1, the “stoichiometry N” value in data set [2] was determined as 2.
